The record followed here is patent US20080058636A1 (EPIX PHARMACEUTICALS, published 2008).

Bridge positions count the residues as written; N and C are the ends. Ends that are not written are not given here.

For assay [1], the target named is T1, rat collagen (acid soluble, type I, rat tail, Upstate 08-115) (rat, UniProt P02454 152-1207; P02466 86-1125).
T1 construct: gelled and dried as a fibril film in the dried collagen assay; also called dried rat collagen; insoluble rat collagen
Briefly: dried collagen assay.

Assay [2] deals with T2, human collagen type I (acid soluble, extracted from placenta, Sigma C7774) (human, UniProt P02452 162-1218; P08123 80-1119).
T2 construct: gelled and dried as a fibril film in the dried collagen assay; also called dried human collagen; h-Collagen
T2 sequence (P02452 162-1218 limits assumed, chain 1 of 2): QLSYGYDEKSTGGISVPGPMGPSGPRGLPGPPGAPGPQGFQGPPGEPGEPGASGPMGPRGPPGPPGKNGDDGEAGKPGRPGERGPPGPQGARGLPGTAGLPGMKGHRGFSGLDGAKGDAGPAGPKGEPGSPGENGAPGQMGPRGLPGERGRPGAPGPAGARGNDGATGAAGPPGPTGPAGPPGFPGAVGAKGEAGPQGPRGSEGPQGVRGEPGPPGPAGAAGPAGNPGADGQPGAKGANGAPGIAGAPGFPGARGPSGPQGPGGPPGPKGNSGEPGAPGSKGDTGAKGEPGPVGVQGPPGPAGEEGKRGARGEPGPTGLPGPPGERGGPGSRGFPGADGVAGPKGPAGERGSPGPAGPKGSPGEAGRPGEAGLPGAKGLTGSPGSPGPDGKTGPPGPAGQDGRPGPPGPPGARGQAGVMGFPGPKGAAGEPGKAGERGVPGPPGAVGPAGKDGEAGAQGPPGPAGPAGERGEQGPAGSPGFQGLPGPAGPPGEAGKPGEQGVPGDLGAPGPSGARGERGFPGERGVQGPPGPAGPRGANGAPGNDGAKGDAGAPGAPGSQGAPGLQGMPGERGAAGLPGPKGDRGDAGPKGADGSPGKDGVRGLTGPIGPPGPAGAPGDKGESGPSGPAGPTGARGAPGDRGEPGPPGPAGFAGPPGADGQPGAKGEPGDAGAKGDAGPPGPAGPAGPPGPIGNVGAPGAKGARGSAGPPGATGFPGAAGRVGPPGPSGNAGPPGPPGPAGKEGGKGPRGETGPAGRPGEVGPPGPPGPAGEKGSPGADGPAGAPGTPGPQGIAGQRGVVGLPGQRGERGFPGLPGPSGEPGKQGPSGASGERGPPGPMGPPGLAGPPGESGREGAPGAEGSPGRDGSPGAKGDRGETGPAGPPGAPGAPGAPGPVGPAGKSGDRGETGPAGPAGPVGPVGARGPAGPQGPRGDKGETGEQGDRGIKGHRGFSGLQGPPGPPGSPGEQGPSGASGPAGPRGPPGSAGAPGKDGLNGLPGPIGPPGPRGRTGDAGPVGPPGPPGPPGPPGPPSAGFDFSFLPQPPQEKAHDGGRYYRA
T2 sequence (P08123 80-1119 limits assumed, chain 2 of 2): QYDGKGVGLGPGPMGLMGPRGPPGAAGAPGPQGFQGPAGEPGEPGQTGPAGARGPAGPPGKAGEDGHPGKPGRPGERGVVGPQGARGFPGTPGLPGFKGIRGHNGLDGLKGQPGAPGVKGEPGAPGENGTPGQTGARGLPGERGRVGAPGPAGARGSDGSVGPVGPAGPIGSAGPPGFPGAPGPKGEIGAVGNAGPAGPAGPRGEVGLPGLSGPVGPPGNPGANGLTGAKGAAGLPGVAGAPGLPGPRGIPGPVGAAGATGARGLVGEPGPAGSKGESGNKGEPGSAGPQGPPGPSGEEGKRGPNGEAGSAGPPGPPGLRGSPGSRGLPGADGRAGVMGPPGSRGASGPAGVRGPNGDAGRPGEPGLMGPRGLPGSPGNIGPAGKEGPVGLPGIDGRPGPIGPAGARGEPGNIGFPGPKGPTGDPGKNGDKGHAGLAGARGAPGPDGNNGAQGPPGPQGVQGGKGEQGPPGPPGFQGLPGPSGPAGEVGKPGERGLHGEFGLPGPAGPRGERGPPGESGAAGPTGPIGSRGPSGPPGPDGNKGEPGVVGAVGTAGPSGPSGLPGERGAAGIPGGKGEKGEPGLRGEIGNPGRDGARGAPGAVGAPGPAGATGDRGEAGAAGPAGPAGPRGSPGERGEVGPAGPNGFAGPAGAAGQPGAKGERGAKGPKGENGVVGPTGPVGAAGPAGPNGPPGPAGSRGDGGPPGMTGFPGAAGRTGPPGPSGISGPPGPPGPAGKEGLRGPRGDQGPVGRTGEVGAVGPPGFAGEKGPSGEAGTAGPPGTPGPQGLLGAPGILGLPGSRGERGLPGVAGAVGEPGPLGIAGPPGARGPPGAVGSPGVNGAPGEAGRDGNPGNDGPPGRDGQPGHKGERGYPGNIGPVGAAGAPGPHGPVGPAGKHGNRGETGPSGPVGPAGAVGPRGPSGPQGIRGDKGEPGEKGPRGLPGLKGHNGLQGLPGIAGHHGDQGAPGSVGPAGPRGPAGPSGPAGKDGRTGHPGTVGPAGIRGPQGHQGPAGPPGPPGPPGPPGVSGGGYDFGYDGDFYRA
Briefly: dried collagen assay.

T1 sequence (P02454 152-1207, chain 1 of 2): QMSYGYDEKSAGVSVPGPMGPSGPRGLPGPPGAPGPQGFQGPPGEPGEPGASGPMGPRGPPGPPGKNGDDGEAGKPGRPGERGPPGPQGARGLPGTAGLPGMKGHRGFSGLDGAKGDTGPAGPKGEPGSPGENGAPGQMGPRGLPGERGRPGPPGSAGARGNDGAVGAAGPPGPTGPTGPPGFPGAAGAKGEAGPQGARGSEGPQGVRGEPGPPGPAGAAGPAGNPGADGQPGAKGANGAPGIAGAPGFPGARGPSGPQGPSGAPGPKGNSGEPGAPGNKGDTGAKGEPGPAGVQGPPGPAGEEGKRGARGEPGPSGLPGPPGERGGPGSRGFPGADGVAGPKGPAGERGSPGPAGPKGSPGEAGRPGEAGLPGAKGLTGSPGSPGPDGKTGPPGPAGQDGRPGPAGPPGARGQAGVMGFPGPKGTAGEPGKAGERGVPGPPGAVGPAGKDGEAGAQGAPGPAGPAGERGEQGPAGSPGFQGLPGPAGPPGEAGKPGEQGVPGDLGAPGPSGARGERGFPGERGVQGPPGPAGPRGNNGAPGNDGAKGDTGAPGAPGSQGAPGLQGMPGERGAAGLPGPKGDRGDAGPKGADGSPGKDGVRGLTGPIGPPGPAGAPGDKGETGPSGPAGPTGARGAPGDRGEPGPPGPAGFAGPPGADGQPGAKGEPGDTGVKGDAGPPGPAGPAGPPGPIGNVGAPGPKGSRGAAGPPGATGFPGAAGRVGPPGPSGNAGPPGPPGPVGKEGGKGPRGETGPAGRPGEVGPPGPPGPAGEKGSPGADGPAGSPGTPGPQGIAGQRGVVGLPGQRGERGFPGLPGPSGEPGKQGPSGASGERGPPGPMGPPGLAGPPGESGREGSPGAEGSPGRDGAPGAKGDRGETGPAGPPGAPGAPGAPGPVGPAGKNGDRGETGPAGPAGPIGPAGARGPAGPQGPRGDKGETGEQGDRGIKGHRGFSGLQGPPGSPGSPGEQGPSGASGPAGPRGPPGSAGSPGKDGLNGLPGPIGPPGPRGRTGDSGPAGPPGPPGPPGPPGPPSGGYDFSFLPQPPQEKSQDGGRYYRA
T1 sequence (P02466 86-1125, chain 2 of 2): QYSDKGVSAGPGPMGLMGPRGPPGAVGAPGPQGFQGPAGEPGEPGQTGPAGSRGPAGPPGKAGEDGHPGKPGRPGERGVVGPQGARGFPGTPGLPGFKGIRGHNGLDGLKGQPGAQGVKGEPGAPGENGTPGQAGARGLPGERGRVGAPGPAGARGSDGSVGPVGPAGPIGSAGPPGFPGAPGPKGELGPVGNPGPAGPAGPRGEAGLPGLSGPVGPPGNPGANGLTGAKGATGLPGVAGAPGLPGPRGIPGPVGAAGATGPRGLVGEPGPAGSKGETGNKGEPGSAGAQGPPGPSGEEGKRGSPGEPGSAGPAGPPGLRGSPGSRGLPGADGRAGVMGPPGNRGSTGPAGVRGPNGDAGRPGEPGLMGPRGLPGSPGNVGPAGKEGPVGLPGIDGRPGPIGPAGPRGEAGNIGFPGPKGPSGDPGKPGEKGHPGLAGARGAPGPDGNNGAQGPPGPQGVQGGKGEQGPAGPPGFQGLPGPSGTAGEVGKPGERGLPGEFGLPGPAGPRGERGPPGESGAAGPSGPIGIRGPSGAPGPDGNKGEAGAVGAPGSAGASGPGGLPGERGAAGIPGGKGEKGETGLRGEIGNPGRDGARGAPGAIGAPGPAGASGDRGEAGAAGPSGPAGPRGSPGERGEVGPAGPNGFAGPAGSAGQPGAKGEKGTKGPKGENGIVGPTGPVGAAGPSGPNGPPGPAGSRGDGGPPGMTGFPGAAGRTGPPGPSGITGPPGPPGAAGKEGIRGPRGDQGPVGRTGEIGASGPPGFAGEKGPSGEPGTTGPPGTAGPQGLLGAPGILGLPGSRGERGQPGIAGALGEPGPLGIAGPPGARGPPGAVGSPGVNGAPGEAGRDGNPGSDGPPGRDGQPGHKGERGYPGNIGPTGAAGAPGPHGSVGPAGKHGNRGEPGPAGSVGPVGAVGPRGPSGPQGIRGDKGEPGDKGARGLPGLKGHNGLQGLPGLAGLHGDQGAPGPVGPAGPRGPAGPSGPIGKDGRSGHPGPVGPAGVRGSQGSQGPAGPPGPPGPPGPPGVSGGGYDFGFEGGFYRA

As to YHACYQAGCYIW (disulfide 4-9; not fully specified (C-terminus)) [SEQ ID NO: 107], the “% Collagen Binding” value in assay [1] amounted to 6%.
Turning to YHASYQAGSWIW (not fully specified) [SEQ ID NO: 111], the “% Collagen Binding” value was 24% in assay [1] and 0% in assay [2].
